Test: label from the status in PepcDB records

Row | Sequence | protein production
1 | MKMLNRLDLGVPCLRAGFAGEQAFFLAMDGRLHVQQGDQRRVVALHDGDVLSACAAPGQADAAAWLLSAGEDGRVMRAGAGEPDCVASVPNKWVTALAVAADGALAYASGRTVWLAGGGGEAAALPQERPVQALRFSHGGRWLAVAGYDGLALYDRQAGGEPQRLDWKGMPTRVAFSPDDRFVLVATRDAVLHGWRLDTLRHFRMVGYPRAVGSWSWLAGGQWLATDGSAGAVLWPFEGEEGPIGSTPLALGERPDGEVSAVACHPARPWVAVGYADGLMVLESTDGALRRILGQAGRDRVACLAWDRAGARLAYGTPSGACGVIQADTGEEGLEHHHHHH | failed
2 | MAILVTGSTGTIGSQVLAHLQGHNVEVRALTRSPETAQFPAGVTAVRGDLADPDSVRAALRGVSTLFLLAPNVADELTQAMLTLTVAREAGVKGIVYLSVFGGDGYADVPHFAGKYTVERMIEALDLPATILRPAYFIQNDLRQKDGLLKTGVYGSPIGKKGVSMVDIRDIGEAAAIELLRREQAATPLGRETYALVGPDSLTGEGIATIWREALGRAIRHGGDDLVVMEQRTKTMLPAWHALDLRLMFSRYQTEGAVATADDIERLTKLLGHAPRSYTAFARDAAAQWTKG | failed
3 | MAKSRLLLSELLDQLSFALCIVRNDYVIVKVNEYFESRVIFDGETMQGKNILELFPESADYLKRKIDTALVIESSSFSSWEQKPHLLPFKSSRPVSGEEEQMYQNLEVIPIHSEDGTIEHVCLCVYDVTIQASQQQ | not failed
4 | MFRWFIAAIEDVYLPVPVMHLLTSNFAPFPWQHLDYTVVQLTKQDSNCLQALFERCTDFFNLTTGQPPASTAAEAEFVDVPAGKTPEDLHVFGLHHPQKGLIGTIIAVQDYPEAATWWIGTMLIDPVYRSQGVGSAFYQAFERWLAAQGVTGIELCAIASNTSGRAFWQRMGFEEIRQTPSRSFGQRHHIAHVYRRCLILLTRRAEFESYDPLNSLNAYLCKTEVINWQHPDIQALAQQLAAGHETPVVIAQACFEWVRDAIRHSVDYQMNPVTWRASDVLQHKTGYCFAKSHLLAALLRANQIPAGFCYQRLSIDDRGTPYSLHGFNAVYLPITGWHRVDPRGNKPGIDTKFSPPIEHLAYQPKLDEEADFSAILAEPLAIVVTALQTHATWDALLHHLPDMTPNTATTIGLYCY | failed
5 | MAAAAAAAAAAGAAGGRGSGPGRRRHLVPGAGGEAGEGAPGGAGDYGNGLESEELEPEELLLEPEPEPEPEEEPPRPRAPPGAPGPGPGSGAPGSQEEEEEPGLVEGDPGDGAIEDPELEAIKARVREMEEEAEKLKELQNEVEKQMNMSPPPGNAGPVIMSIEEKMEADARSIYVGNVDYGATAEELEAHFHGCGSVNRVTILCDKFSGHPKGFAYIEFSDKESVRTSLALDESLFRGRQIKVIPKRTNRPGISTTDRGFPRARYRARTTNYNSSRSRFYSGFNSRPRGRVYRGRARATSWYSPY | failed
6 | MKENLQDRLERENLKIASFGKRVLAFLIDDMVISLIVFIIFYDRLIQAKDLFETTQIVGNFYLGFILLHFSYQAIFTYLYGASLGKILCKIIILDENLLDKPNLIQSCIRSAVRQVSAMAFMLGFAWALSNDLRKAWEDYLARTIVVDVA | failed
7 | MYLLNDKVAHELKKPFGKVYKELPSIEGKVVSIGDVTTKHLLSNGIIPDLSILDFKTKRNIPVDIPHKFKTIFEVENPQGCISDEAIERIKYLSTIHDRDMALIIKGEEDLLTIPVIKYFPEDTSVIYGQPDEGMVLLKITDELKQKIEKLLKEMEER | failed
8 | MPSTQSLTVAAKTLRNRIFSRSGSTSAGPSRWATPGHEERPKGYFMNRTPPAPGQSRKWEDWELPCYITSFLTIVILGVGLNAKPDLSIETWAHQKALERLEMEKLATAGDSSD | failed
9 | MAFDLQEQEQIDSLKAFWQQWGKLIGGAVLAVSLGYLGYKAYGMYQRGQSEKAAAAYEAVDDAVAAKDIAKLKSAAQQLQGEYAGTLYASRAALVLAKAAFDKNDPALAASQLEWVLKNGKDEELQAIARLRLASLLLDQKKFDGAIGELNQAHPAAFDAEFLELKGDVFVAKGDSNGARDAYKAALAKMQGESPNRQLVQTKLDALGG | failed
10 | MGSTQYWDLKSGVCTRIFGGHQGTITCMDLCKNRLVSGGRDCQVKVWDVDTGKCLKTFRHKDPILATRINDTYIVSSCERGLVKVWHIAMAQLVKTLSGHEGAVKCLFFDQWHLLSGSTDGLVMAWSMVGKYERCLMAFKHPKEVLDVSLLFLRVISACADGKIRIYNFFNGNCMKVIKANGRGDPVLSFFIQGNRMVVNTESNVLMFQFEHIKWQYAVEKTKQKKNKEKEEEKEENSLMEILSKCNIQVHSPRESVSSKQTVIQELLPGKPPKSRVLLKPAKFSSAVLIEELQSQGKSKSPRRDADDVEKAQKQGQLETPGKLPSHPKKKSWKIPMSPDQFLLTVSALQHARNSGEFAYPCRPQTEITDVWGPSISYPRKVLNFKGKSIQRAVDRLRLSNPPIDVKRTSIPLEIQKLQPNLKISLHSPRAQSTIPQPMIIRSRFSGSLKGGDQVTSSIERAVCSTGPLTSMQVIKPNRMLAPQVGTATLSLKKERPRIYTALDPFRVNAEFVLLTVKEEKEHQEAKMKEYQARESTGVVDPGKASKAAWIRKIKGLPIDNFTKQGKTAAPELGQNVFI | failed
11 | MAMNLRKNQAPLYIKVHEIDNTAIIVNDGGLPKGTVFSCGLVLEEDVPQGHKVALTDLNQGDEIVRYGEVIGFADETIKRGSWIREALVRMPAP | failed
12 | MLTYYLKTEIQLLFRKKVYLVLSILVPLALYLLFTSILDLPEEAKKPFYKEYMYSMTAFSLSSFCLMQFPIDLINEKTTGWYKNLMRTPLQSHQYYMAKVFKMMFQFILAILLIFIVAHFMKGVEMSTSDWLLSGLILWIGASTFLSVGVLISQINEIQKASSIGNILYLSLAILGGLWFPVSQFPEWMRKIAYVTPTYHLKQVAYEIGKGGTLDYLSLFVLVGYSILFLVVALIIQKRRDVDI | failed
13 | MLSIEVTVFAAIAYLTILFSIAYRGDRGASNRVRPYRYSLAQGVHCTSWAFFGTITQSAYYGWAFAPTYVGAIIVFILLHSLQLKLLNYCKHQNITSIADLIGTRYGKSPVLAGVVAITAFIAVVPYISLQLRAVTSSFATVTGFDTNPSWIFDLSFLVALTMIGFGFLFGTRRLSLAEQHSGLMDAIAFESLVKLAAFIIVGLFASYTVFDGLADLFQKSFETQHTQDVLAGREYGGYVFAVHMLLGGLSMFSLPRQFHVGYVENTHSDELKTARWAFPLYLFAINFFILPLSLSALHLAPELANQDTFMLVIPLMMDRPDITLIAFIGGLSAATSMVIIALLALSIMVSNDVVMPIWLRMTRQKLRQFSFTPTRILSIRRMTMVVVMFMAYLYYQATIESMPLVNSGLLSLALLTQLTPAILATVLWRSATQTGVLVGLVVGTALWVILLLVPSIGLQPQVTDIDIANGVLISLGANLICFWLFSLISKNVQTDLQSIQSSDDYEQQPSLTWARLRSLLSRFYDDRQLAAIQRRLRMDLLTPEGQSMVPAPMLVRIERELSAVIGTSASRLLLDTVSEQQEFPVSRVVDWATEASKLYQFNRELLQASVENIPQGISVVDQKLRLVAWNRRYLEIFDYPDGLVRAGMPVEELLRYNARRGLLSNSQNTDVEAEIQKRLNFLRTGSTYHYQRQQGELTVELQGSPMPGGGFVTTYSDITERVEAQRQLQKINQELEERVDERTQQLLSAKEAEEKAHESKSRFFAAVSHDLMQPFNAASLFCEMLQSRLPNEYLPLAVNIQRSLDHAEELLTMLLDMTKLDAGNLKPDYQEFSIDQALLPLVERYQAMAKEKQLRFHYHKSSALVKTDRKLLNRIIQNLLSNALRYTQHGRIVLGFRRHQQHLTICIIDTGSGIPEHKQTEIFREFHQLQSSGDNPGLGLGLSIVERMCRLLRIDLSLSSTLDKGTAFSLTLPVIGWQKEPQPVVIKNDSVDEKLLKDMRVLVIDNDPGVLKATAGLLTDWGAETMTASSFDQARKHPPCDLILADYHLDNGNTGIELVVSIRKLWNSNTPAIINSADPDELLREQALEANAYFIPKPLKSGALKRLLKRIRRI | failed
14 | MSLRIVVTVKYVPDATGDRHFAEDLTVDRDDVDGLLSELDEYAVEQALQIADDADDADDAEITVLTVGPEDAKDALRKALSMGADKAIHVEDDDLHGTDVIGTSLVLAKAIEKAGYDLVISGMASTDGTAGVVPALLAERLGVPQVTLLSEVSVEDGVVKGRRDGDSASEQLEASLPAVVSVTDQSGEARYPSFKGIMAAKKKPVESWDLSDLDLEAEEVGLEGAWTKVDSATERPARTAGTIVKDEGEGGKQLAEFLAGQKFI | failed
15 | DVLSSSNFILPDGIGVVMMSRLTNNRLQSRIAGYDVFKELLGVANKKKKRIFLYGAKKDVIKGVVSKISSEYPNIKIAGYSDGYVQDRTLVAKQIARANPDMVFVALGYPHQEKFIHNYRHLFPKAVSIGLGGSFDVFSGNVKRAPSWMIRLNLEWFYRLILNPWRWKRM | not failed
16 | MQFKIIKAQELEKQQREKIAELCFAAFEEDPWSQYAFMQNAFHIIGLLGEDIVSHALWTDRVFTLNNHVTLKTAYIEYVTTDSTMRGRGLASKLLMYLINILTTKKYELAALQPEVEAFYRKLGWVSWGGNLYIKHNISIYKTDGIEVMLYPLSGGLKDQIVCSLKNDKICTDWREGELW | failed
17 | SGKVILITGASRGIGLQLVKTVIEEDDECIVYGVARTEAGLQSLQREYGADKFVYRVLDITDRSRMEALVEEIRQKHGKLDGIVANAGMLEPVKSISQSNSEHDIKQWERLFDVNFFSIVSLVALCLPLLKSSPFVGNIVFVSSGASVKPYNGWSAYGCSKAALNHFAMDIASEEPSDKVRAVCIAPGVVDTQMQKDIRETLGPQGMTPKALERFTQLYKTSSLLDPKVPAAVLAQLVLKGIPDSLNGQYLRYNDERLGPVQG | not failed
18 | MASRSKPSVRAFARQVHLWLGLSIGVLFAVVGLTGSILVFYTAIDDALHPEIRLRGAAPPPSWEQVYQTARATYPDKAGPWRFEVTEAGGDIPARYYKPPERADRDFAPMMVWFSADGGRVIRRDYWGEYAMTWVYDLHHRLLLQATGGAILGWSGLAMLALMVAGLTAWWPRRGGWRKALQMKPRAAPLRKLYDWHKQTGLWSFGLLVLLTLTGVLLALPKESEIALRPILGPPAGAPTIDKSITFDPGTRISVDQAVAIAQGALPGARLAWIETPSTDSGVYRLRLQTPGDPSRRFPHSFVWITPATGEVLAMTDARQAGAHDVLLNWTHPLHDASAGGLPARLLAVLVGLAPSALLILGFMRWRQRLRPQERKLSDHS | failed
19 | MSQAFPGPHGAPATGHVPVLRLGEVLLVTLQGDLHDSTAQQLQEDLAETIVRSGATGVVIDVSGVEIVDSFLGRILAEIAGQTGLLAARTVLVGMRPAVAITLVELGLTLPGVHTALSTEVAMELLRQQAPSSRFGGLRQESQ | not failed
20 | KSPVREPVDNLSPEERDARTVFCMQLAARIRPRDLEDFFSAVGKVRDVRIISDRNSRRSKGIAYVEFCEIQSVPLAIGLTGQRLLGVPIIVQASQAEKNRL | not failed
21 | MLTTLAIGNYRSINHLVLPLSQLNLVTGANGSGKSNLYKALRLLAETAQGGVVEALAREGGLDSTWWAGPETSARMRRGEVPIQGQHPSEVRRLRLGFATEDLGFAITLGLPIPLPYPSAFMLDPEIKCEAIWGAGAYRPSSLLVERKNALVRAREGNRWAVLDQHADSGESFFNIVGRPRQAPEIGDLRAFINSWRFYDHFRIDRDAPCRQPQLGTRSPVLHHDGRNLASALQTIIEIGDVEDLEEALNDAFPGSRLEINAPPGGLFSVRLHQHGLLRPLEGAELSDGTLRYLLLMAALLTPRPPSLMVLNEPETSLHADLLPALARLIIRASRRSQVWVVSHSAPLINALAACDGCNVLELEKIQGQTQLRGVGLLDEPLWRWAD | failed
22 | MHSIRNFFCGQWSSSVRLDEKTVIITGANTGIGKETARDLARRGARVVMACRDLEKAEAARRELMDNSGNQNIVVKKLDLADTKSIKAFAELINKEEKQVNILINNAGIMMCPYSKTADGFEMQFGVNHLGHFLLIYLLLDLLKKSTPSRIVNVASVAHTWSGIHLEDINSEKVYSPRRAYGQSKLANILCTRSLAKRLQGSGVNVYSLHPGVVQSELFRNLSKPAQIAFKVFSPFTKTTSQGAQTTIYCAIEPELDRESGGYYSDCGPAQCSREASDDEMAQKLWELSCQMLGIIWD | failed
